Assay results reported in patent US20240270821A1, “GIP/GLP1/GCG TRI-RECEPTOR AGONISTS AND USES THEREOF” (priority 2023, published 2024).
Where a chain is given by its changes, count along the chain named.

T1: human GIP receptor (human) (UniProt P48546)
T1 sequence (looked up): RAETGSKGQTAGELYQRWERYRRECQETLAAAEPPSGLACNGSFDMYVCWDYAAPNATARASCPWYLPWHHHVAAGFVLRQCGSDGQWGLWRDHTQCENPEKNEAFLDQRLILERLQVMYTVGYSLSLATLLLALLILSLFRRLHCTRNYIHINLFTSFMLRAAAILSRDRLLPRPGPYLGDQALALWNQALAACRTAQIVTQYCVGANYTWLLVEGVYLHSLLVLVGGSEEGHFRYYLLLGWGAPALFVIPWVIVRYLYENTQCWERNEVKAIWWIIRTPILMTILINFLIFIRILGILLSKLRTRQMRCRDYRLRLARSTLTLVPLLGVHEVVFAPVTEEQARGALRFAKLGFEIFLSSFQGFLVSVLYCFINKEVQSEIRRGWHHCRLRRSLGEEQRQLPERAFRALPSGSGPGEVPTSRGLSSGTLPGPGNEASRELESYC

B1: Example 106 (peptide)
chain: YXQGTFTSDFSXXLDKKAQXAFIEYLLAGGTSSGEPPPSGE
modifications: synthetic construct; SITE 2: note = 2-Aminoisobutyric Acid; SITE 12: note = L-ornithine; SITE 13: note = alpha-methyl-leucine; SITE 17: note = Lysine is chemically modified through conjugation of the epsilon-amino group of the Lysine side chain with (2-[2-(2-Amino-ethoxy)-ethoxy]-acetyl)-(gamma-Glu)
B2: Example 1123 (peptide)
chain: YXQGTFTSDXSQXLDKKAQXAFIEXLIEXGPSSGEPPPSGE
modifications: Aib, 4Pal, αMeL, Me4Pal; acylated Lys; C-terminal amide; synthetic construct; SITE 2: note = 2-Aminoisobutyric Acid; SITE 10: note = 3-(4-Pyridyl)-L-alanine; SITE 13: note = alpha-methyl-leucine; SITE 17: note = Lysine is chemically modified through conjugation of the epsilon-amino group of the Lysine side chain with (gamma-Glu)2-CO-(CH2)16-CO2H; SITE 20:
B3: Example 1143 (peptide)
chain: YXQGTXTSDXXIXLDXKAQXEFIEXLIEGGPSSGEPPPTGE
modifications: Non-natural residues; K acylated AEEA-γGlu-C18 diacid; C-terminal amide; synthetic construct; SITE 2: note = 2-Aminoisobutyric Acid; SITE 6: note = alpha-methyl-2-fluoro-L-phenylalanine; SITE 10: note = 3-(4-Pyridyl)-L-alanine; SITE 11: note = alpha-methyl-L-serine; SITE 13: note = alpha-methyl-leucine; SITE 16: note = L-ornithine; SITE 17: note = Lysine is chemically mo
B4: Example 1147 (peptide)
chain: B3 chain with T39E, G40S
modifications: non-natural residues; K acylated AEEA-γGlu-C18 diacid; C-amide; synthetic construct; SITE 2: note = 2-Aminoisobutyric Acid; SITE 6: note = alpha-methyl-2-fluoro-L-phenylalanine; SITE 10: note = 3-(4-Pyridyl)-L-alanine; SITE 11: note = alpha-methyl-L-serine; SITE 13: note = alpha-methyl-leucine; SITE 16: note = L-ornithine; SITE 17: note = Lysine is chemically mo
B5: Example 1154 (peptide)
chain: B3 chain with I27V, E35A, T39G
modifications: not fully specified; non-natural residues; AEEA-γGlu-C18 diacid acyl; C-terminal amide; synthetic construct; SITE 2: note = 2-Aminoisobutyric Acid; SITE 6: note = alpha-methyl-2-fluoro-L-phenylalanine …; SITE 10: note = 3-(4-Pyridyl)-L-alanine; SITE 11: note = alpha-methyl-L-serine; SITE 13: note = alpha-methyl-leucine; SITE 16: note = L-ornithine; SITE 17: note = Lysine is chemically mo
B6: Example 1158 (peptide)
chain: B3 chain with I27V, E35A, T39E
modifications: not fully specified; non-natural residues, lysine acylation, C-terminal amide; synthetic construct; SITE 2: note = 2-Aminoisobutyric Acid; SITE 6: note = alpha-methyl-2-fluoro-L-phenylalanine; SITE 10: note = 3-(4-Pyridyl)-L-alanine; SITE 11: note = alpha-methyl-L-serine; SITE 13: note = alpha-methyl-leucine; SITE 16: note = L-ornithine; SITE 17: note = Lysine is chemically mo
B7: Example 1151 (peptide)
chain: B3 chain with T39S
modifications: not fully specified; non-natural residues; acylated Lys; C-terminal amide; synthetic construct; SITE 2: note = 2-Aminoisobutyric Acid; SITE 6: note = alpha-methyl-2-fluoro-L-phenylalanine; SITE 10: note = 3-(4-Pyridyl)-L-alanine; SITE 11: note = alpha-methyl-L-serine; SITE 13: note = alpha-methyl-leucine; SITE 16: note = L-ornithine; SITE 17: note = Lysine is chemically mo
B8: Example 1145 (peptide)
chain: B3 chain with T39G
modifications: non-natural residues; lipidated Lys AEEA-γGlu-C18 diacid; C-term amide; synthetic construct; SITE 2: note = 2-Aminoisobutyric Acid; SITE 6: note = alpha-methyl-2-fluoro-L-phenylalanine; SITE 10: note = 3-(4-Pyridyl)-L-alanine; SITE 11: note = alpha-methyl-L-serine; SITE 13: note = alpha-methyl-leucine; SITE 16: note = L-ornithine; SITE 17: note = Lysine is chemically mo
B9: Example 1156 (peptide)
chain: B3 chain with I27V, E35A, T39E, G40S
modifications: not fully specified; acylated lysine AEEA-γGlu-C18 diacid; non-natural residues; C-terminal amide; synthetic construct; SITE 2: note = 2-Aminoisobutyric Acid; SITE 6: note = alpha-methyl-2-fluoro-L-phenylalanine; SITE 10: note = 3-(4-Pyridyl)-L-alanine; SITE 11: note = alpha-methyl-L-serine; SITE 13: note = alpha-methyl-leucine; SITE 16: note = L-ornithine; SITE 17: note = Lysine is chemically mo
B10: Example 1149 (peptide)
chain: B3 chain with T39E
modifications: non-natural residues; AEEA-γGlu-C18 diacid on Lys; C-terminal amide; synthetic construct; SITE 2: note = 2-Aminoisobutyric Acid; SITE 6: note = alpha-methyl-2-fluoro-L-phenylalanine; SITE 10: note = 3-(4-Pyridyl)-L-alanine; SITE 11: note = alpha-methyl-L-serine; SITE 13: note = alpha-methyl-leucine; SITE 16: note = L-ornithine; SITE 17: note = Lysine is chemically mo
B11: Example 1153 (peptide)
chain: B3 chain with I27V
modifications: not fully specified; Aib, αMeF(2F), 4Pal, αMeS, Orn, Me4Pal, αMeY; acylated; amide; synthetic construct; SITE 2: note = 2-Aminoisobutyric Acid; SITE 6: note = alpha-methyl-2-fluoro-L-phenylalanine; SITE 10: note = 3-(4-Pyridyl)-L-alanine; SITE 11: note = alpha-methyl-L-serine; SITE 13: note = alpha-methyl-leucine; SITE 16: note = L-ornithine; SITE 17: note = Lysine is chemically mo
B12: Example 1152 (peptide)
chain: B3 chain with I27V, E35A
modifications: not fully specified; acylated lysine AEEA-γGlu-C18 diacid; non-natural residues; C-terminal amide; synthetic construct; SITE 2: note = 2-Aminoisobutyric Acid; SITE 6: note = alpha-methyl-2-fluoro-L-phenylalanine; SITE 10: note = 3-(4-Pyridyl)-L-alanine; SITE 11: note = alpha-methyl-L-serine; SITE 13: note = alpha-methyl-leucine; SITE 16: note = L-ornithine; SITE 17: note = Lysine is chemically mo
B13: Example 1157 (peptide)
chain: B3 chain with I27V, T39E, G40S
modifications: not fully specified; non-natural residues; lipidated Lys; C-terminal amide; synthetic construct; SITE 2: note = 2-Aminoisobutyric Acid; SITE 6: note = alpha-methyl-2-fluoro-L-phenylalanine; SITE 10: note = 3-(4-Pyridyl)-L-alanine; SITE 11: note = alpha-methyl-L-serine; SITE 13: note = alpha-methyl-leucine; SITE 16: note = L-ornithine; SITE 17: note = Lysine is chemically mo
B14: Example 1155 (peptide)
chain: B3 chain with I27V, T39G
modifications: not fully specified; Lys acylated AEEA-γGlu-C18 diacid; non-natural residues; C-amide; synthetic construct; SITE 2: note = 2-Aminoisobutyric Acid; SITE 6: note = alpha-methyl-2-fluoro-L-phenylalanine; SITE 10: note = 3-(4-Pyridyl)-L-alanine; SITE 11: note = alpha-methyl-L-serine; SITE 13: note = alpha-methyl-leucine; SITE 16: note = L-ornithine; SITE 17: note = Lysine is chemically mo

molecular target: hGLP-1R (Homo sapiens, UniProt P43220); experiment: cell-based or functional assay
Sequence (P43220 24-463): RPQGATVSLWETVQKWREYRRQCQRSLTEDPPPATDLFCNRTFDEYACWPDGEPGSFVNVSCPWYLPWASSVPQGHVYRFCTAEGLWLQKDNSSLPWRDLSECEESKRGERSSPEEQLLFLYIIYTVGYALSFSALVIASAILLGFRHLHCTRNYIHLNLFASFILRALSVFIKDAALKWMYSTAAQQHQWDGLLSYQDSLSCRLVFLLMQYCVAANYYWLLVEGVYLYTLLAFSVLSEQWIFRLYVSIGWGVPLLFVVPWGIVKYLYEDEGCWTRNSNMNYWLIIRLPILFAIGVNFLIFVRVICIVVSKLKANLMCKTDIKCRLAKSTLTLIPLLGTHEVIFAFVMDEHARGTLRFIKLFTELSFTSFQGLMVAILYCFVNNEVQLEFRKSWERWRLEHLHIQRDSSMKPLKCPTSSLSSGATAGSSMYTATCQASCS

| Binder | Relative cAMP EC50 [nM] | cAMP Rel EC50, nM (in the presence of 1% HSA) [nM] | cAMP Rel EC50 (1% HSA) [nM] | cAMP Rel EC50 (in the presence of 1% HSA) [nM] |
| --- | --- | --- | --- | --- |
| B1 | 3.94 | 977 |  |  |
| B2 | 4.47 |  | 191 |  |
| B3 | 0.381 |  | 49.6 |  |
| B4 | 0.347 |  | 45.4 |  |
| B5 | 0.344 |  |  | 44.5 |
| B6 | 0.419 |  |  | 46.8 |
| B7 | 0.262 |  | 40 |  |
| B8 | 0.313 |  | 39.1 |  |
| B9 | 0.444 |  |  | 47.1 |
| B10 | 0.352 |  | 52.2 |  |
| B11 | 0.33 |  |  | 52.7 |
| B12 | 0.371 |  |  | 43.8 |
| B13 | 0.408 |  |  | 57.5 |
| B14 | 0.434 |  |  | 44.4 |

molecular target: T1, human GIP receptor (human); experiment: cell-based or functional assay

| Binder | Relative cAMP EC50 [nM] | cAMP Rel EC50, nM (in the presence of 1% HSA) [nM] | cAMP Rel EC50 (1% HSA) [nM] | cAMP Rel EC50 (in the presence of 1% HSA) [nM] |
| --- | --- | --- | --- | --- |
| B1 | 0.345 | 91 |  |  |
| B2 | 0.101 |  | 3.89 |  |
| B3 | 0.0087 |  | 0.751 |  |
| B4 | 0.00753 |  | 0.831 |  |
| B5 | 0.00879 |  |  | 0.954 |
| B6 | 0.0126 |  |  | 1.42 |
| B7 | 0.00339 |  | 0.287 |  |
| B8 | 0.00689 |  | 0.848 |  |
| B9 | 0.0127 |  |  | 1.33 |
| B10 | 0.00804 |  | 0.96 |  |
| B11 | 0.0109 |  |  | 1.39 |
| B12 | 0.0101 |  |  | 1.21 |
| B13 | 0.0124 |  |  | 1.28 |
| B14 | 0.00917 |  |  | 0.888 |

molecular target: human glucagon receptor (human) (UniProt P47871); experiment: cell-based or functional assay
Sequence (P47871 26-477): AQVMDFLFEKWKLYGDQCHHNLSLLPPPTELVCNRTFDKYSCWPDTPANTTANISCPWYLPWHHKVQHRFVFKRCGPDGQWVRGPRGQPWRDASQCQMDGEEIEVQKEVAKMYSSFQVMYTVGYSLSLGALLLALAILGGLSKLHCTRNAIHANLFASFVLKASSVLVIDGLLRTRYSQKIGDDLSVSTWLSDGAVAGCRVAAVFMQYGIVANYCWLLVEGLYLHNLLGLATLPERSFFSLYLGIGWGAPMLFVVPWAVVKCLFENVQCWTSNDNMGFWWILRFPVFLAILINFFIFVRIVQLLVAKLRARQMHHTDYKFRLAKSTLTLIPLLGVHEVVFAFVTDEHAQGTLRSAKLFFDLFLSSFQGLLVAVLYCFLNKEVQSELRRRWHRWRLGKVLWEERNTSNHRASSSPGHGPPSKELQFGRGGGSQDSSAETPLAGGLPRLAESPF

| Binder | Relative cAMP EC50 [nM] | cAMP Rel EC50, nM (in the presence of 1% HSA) [nM] | cAMP Rel EC50 (1% HSA) [nM] | cAMP Rel EC50 (in the presence of 1% HSA) [nM] |
| --- | --- | --- | --- | --- |
| B1 | 6.26 | 2000 |  |  |
| B2 | 5.53 |  | 441 |  |
| B3 | 1.42 |  | 182 |  |
| B4 | 1.17 |  | 167 |  |
| B5 | 6.42 |  |  | 320 |
| B6 | 2.19 |  |  | 301 |
| B7 | 1.31 |  | 206 |  |
| B8 | 1.07 |  | 148 |  |
| B9 | 2.94 |  |  | 337 |
| B10 | 1.37 |  | 184 |  |
| B11 | 2.69 |  |  | 215 |
| B12 | 2.32 |  |  | 287 |
| B13 | 2.04 |  |  | 384 |
| B14 | 1.83 |  |  | 288 |
